Laboratory results taken from PMC11530643 (Communications Biology, 2024).
Ends that are not written are not given here. * marks the point of attachment. MTSL = spin label from S-(1-oxyl-2,2,5,5-tetramethyl-2,5-dihydro-1H-pyrrol-3-yl)methyl methanesulfonothioate, attached to the cysteine side chain, CC1(C)C=C(CS*)C(C)(C)N1[O]

Molecular target: FOXO4 forkhead domain (FHD; 95–195 a.a.) (human, UniProt P98177 95-195)
Assay: NMR paramagnetic relaxation enhancement

FOXO4 forkhead domain (FHD; 95–195 a.a.), sequence (P98177 95-195): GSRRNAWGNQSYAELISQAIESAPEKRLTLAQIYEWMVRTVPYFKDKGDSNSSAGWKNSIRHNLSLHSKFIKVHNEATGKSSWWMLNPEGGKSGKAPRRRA

B1: FOXO4 conserved region 3 (CR3; 469–505 a.a.), MTSL-labelled at C481 (domain or fragment, human, UniProt P98177 469-505, looked up)
chain: DLDLDMYMENLEC(MTSL)DMDNIISDLMDEGEGLDFNFEPDP
binding result: binds
